The target of the experiment is Pex5L, a longer isoform of Pex5 (Chinese hamster, ClPex5L) (Chinese hamster, UniProt Q920N5 1-640). The experiment can be described thus: pull-down; GST-Pex14 variants (2 μg) on glutathione-Sepharose beads incubated with EGFP-PTS1 (4 μg) or HA-catalase (4 μg) in the presence of Pex5L (2 μg) 2 h at 4°C; 50 mM Tris-HCl pH 7.5, 0.15 M NaCl, 1% Triton X-100, 10% glycerol; immunoblot. Particulars: both partners purified.

B1: HA-catalase (human, HA-HsCatalase) (enzyme)
chain: MADSRDPASDQMQHWKEQRAAQKADVLTTGAGNPVGDKLNVITVGPRGPLLVQDVVFTDEMAHFDRERIPERVVHAKGAGAFGYFEVTHDITKYSKAKVFEHIGKKTPIAVRFSTVAGESGSADTVRDPRGFAVKFYTEDGNWDLVGNNTPIFFIRDPILFPSFIHSQKRNPQTHLKDPDMVWDFWSLRPESLHQVSFLFSDRGIPDGHRHMNGYGSHTFKLVNANGEAVYCKFHYKTDQGIKNLSVEDAARLSQEDPDYGIRDLFNAIATGKYPSWTFYIQVMTFNQAETFPFNPFDLTKVWPHKDYPLIPVGKLVLNRNPVNYFAEVEQIAFDPSNMPPGIEASPDKMLQGRLFAYPDTHRHRLGPNYLHIPVNCPYRARVANYQRDGPMCMQDNQGGAPNYYPNSFGAPEQQPSALEHSIQYSGEVRRFNTANDDNVTQVRAFYVNVLNEEQRKRLCENIAGHLKDAQIFIQKKAVKNFTEVHPDYGSHIQALLDKYNAEKPKNAIHTFVQSGSHLAAREKANL
notes: catalase, human (HsCatalase), amplified from pUcD3/HA-HsCatalase (Otera and Fujiki, 2012) and cloned into pGEX6P-1; source: E. coli DH5α, purified as GST fusion with glutathione-Sepharose beads, isolated by cleaving with PreScission protease
Consider B1, for which the binding result is recorded as “binds”.

The record behind these values is article doi:10.1101/2020.05.01.072132, “Peroxisome counteracts oxidative stresses by suppressing catalase import via Pex14 phosphorylation” (bioRxiv, 2020).
